Experimental data as given in publication PMC6478338, “Peptide barcoding for establishment of new types of genotype–phenotype linkages” (PLoS ONE, 2019).

B1: Anti-CD4-FLAG nanobody (VHH)
VHH: EVQLVESGGGSVQPGGSLTLSCGTSGRTFNVMGWFRQAPGKEREFVAAVRWSSTGIYYTQYADSVKSRFTISRDNAKNTVYLEMNSLKPEDTAVYYCAADTYNSNPARWDGYDFRGQGTQVTVSS
notes: also called anti-CD4 nanobody; source: Pichia pastoris GS115, secreted; culture supernatant filtered, concentrated and buffer-replaced with PBS
B2: Anti-CD4-FLAG-Barcode 1 nanobody (VHH)
VHH: EVQLVESGGGSVQPGGSLTLSCGTSGRTFNVMGWFRQAPGKEREFVAAVRWSSTGIYYTQYADSVKSRFTISRDNAKNTVYLEMNSLKPEDTAVYYCAADTYNSNPARWDGYDFRGQGTQVTVSS
notes: also called peptide-barcoded anti-CD4 nanobody; source: Pichia pastoris GS115, secreted; culture supernatant filtered, concentrated and buffer-replaced with PBS; purified with anti-FLAG gels (immunostaining)

Target: T1, Recombinant human sCD4 CF (Homo sapiens, UniProt P01730)
T1 construct: CD4, human, soluble recombinant form (sCD4, carrier-free); it is probably the extracellular domain of CD4 (surmised); also called recombinant CD4; source: bought: R&D Systems
Experiment: SPR; Biacore T-200; sCD4 (2486.9 RU) or GFP (1189.8 RU) immobilised on CM5 chip; nanobodies flowed in HBS-EP (0.01 M HEPES pH 7.4, 0.15 M NaCl, 3 mM EDTA, 0.005% P20): anti-CD4 0.2-1.0 uM, anti-GFP 0.5-50 nM; 30 uL/min, contact 120 s, dissociation 120 s
Details: both partners purified

Row | Binder | Kd [nM] | koff [s⁻¹] | kon [M⁻¹ s⁻¹]
1 | B1 | 42 | 0.0054 | 68000
2 | B2 | 52 | 0.004 | 77000
